In US6805861B2, “Immunotherapy using cytotoxic T lymphocytes (CTL)” (Imperial College Innovations Limited, priority 1996, dated 2004):
Read-outs that look alike come from different tables or passages of the source.

Legend:
H-2K^b class I molecules = biological target: T1, H-2K^b class I molecules (Mus musculus, UniProt P01901); assay: Binding of peptide to H-2K^b class I molecules
T1 sequence (P01901 22-369): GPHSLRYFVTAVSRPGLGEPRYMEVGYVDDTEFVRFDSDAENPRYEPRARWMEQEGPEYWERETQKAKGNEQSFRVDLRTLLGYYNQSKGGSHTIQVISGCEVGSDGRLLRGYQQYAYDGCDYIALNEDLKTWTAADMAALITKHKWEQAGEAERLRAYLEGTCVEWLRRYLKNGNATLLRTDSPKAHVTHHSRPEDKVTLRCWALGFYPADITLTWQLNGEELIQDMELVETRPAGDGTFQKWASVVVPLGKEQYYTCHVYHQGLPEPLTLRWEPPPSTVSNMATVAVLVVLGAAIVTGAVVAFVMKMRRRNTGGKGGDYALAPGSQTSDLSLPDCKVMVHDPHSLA
T1 sequence (P01887 21-119 partner): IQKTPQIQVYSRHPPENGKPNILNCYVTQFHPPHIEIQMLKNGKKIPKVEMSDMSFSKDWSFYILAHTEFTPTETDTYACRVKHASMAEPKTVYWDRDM
Description: Peptides: The mdm100 peptide corresponds to amino acid 100-107 (YAMIYRNL; SEQ ID No 1) of the murine mdm-2 protein. […] All peptides used in this study were synthesised by the central peptide synthesis laboratory of the Imperial Cancer Research Fund, London, using finoc chemistry. The quality of the peptides were assessed by HPLC analysis and the expected molecular weight was observed using MALDI mass-spectrometry. The peptides were dissolved in phosphate buffered saline (pH 7.4) to give a concentration of 2 mM and stored at −20° C.

[1] = CTL stimulation by mdm100 peptide in C57BL/6 mice; type: in vivo, mouse; details: self-restricted repertoire

For YAMIYRNL [mdm100 peptide], the “binding to H-2K^b class I molecules” value (H-2K^b class I molecules) was “bound efficiently”, the “binding to H-2K^b class I molecules” value (H-2K^b class I molecules; listed as mdm100) was “efficiently bound” and the “CTL stimulated by the peptide in C57BL/6 mice (H-2^b)” value [1] was “only stimulated low avidity CTL”.
